± gives the uncertainty stated by the source.
Assay: self-splicing fitness, log relative to wild type (ln ratio); higher = more splicing; Tetrahymena group I intron in knt gene, E. coli kanamycin selection, DiMSum; sequences stand for … in CUCUCU…GGAGGGAAAAGUUAUCAGGCAUGCACCUGGUAGCUAGUCUUUAAACCAAUAGAUUGCAUCGGUUUAAAAGGCAAGACCGUCAAAUUGCGGGAAAGGGGUCAACAGCCGUUCAGUACCAAGUCUCAGGGGAAACUUUGAGAUGGCCUUGCAAAGGGUAUGGUAAUAAGCUGACGGACAUGGUCCUAACCACGCAGCCAAGUCCUAAGUCAACAGAUCUUCUGUUGAUAUGGAUGCAGUUCACAGACUAAAUGUCGGUCGGGGAAGAUGUAUUCUUCUCAUAAGAUAUAGUCGGACCUCUCCUUAAUGGGAGCUAGCGGAUGAAGUGAUGCAACACUGGAGCCGCUGGGAACUAAUUUGUAUGCGAAAGUAUAUUGAUUAGUUUUGGAGUACUCGUGGUCG
Method in brief: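 Pooled colonies went to amplicon sequencing on an Illumina HiSeq 2500 after six replicate transformations. The plates were LB agar with 100 μg/mL carbenicillin, 50 μM IPTG and 0.2% rhamnose, with or without 25 μg/mL kanamycin, incubated overnight at 37°C or 30°C. The E. coli BL21(DE3) library had all eight P1ex-region intron nucleotides randomised, the intron placed in the knt kanamycin-resistance gene on pET-22b(+). DiMSum fitness is the error-weighted combination of replicate fold changes, kanamycin against none, normalised to wild type.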

Sequence	self-splicing fitness (ln) (30 °C)	self-splicing fitness (ln) (37 °C)
AUUGAGCAAUAUUACGCAAU	-3.28 ± 0.26	-2.07 ± 0.21
AUUGAGCAAUAUUACGCACU	-0.165 ± 0.14	-0.756 ± 0.15
AUUGAGCAAUAUUACGCCGC	-2.67 ± 0.49	
AUUGAGCAAUAUUACGCCGU		-2.56 ± 0.49
AUUGAGCAAUAUUACGCGAU	-3.68 ± 0.32	-2.33 ± 0.34
AUUGAGCAAUAUUACGCGGA	-4.15 ± 0.35	-2.2 ± 0.14
AUUGAGCAAUAUUACGCGUA		-1.87 ± 0.31
AUUGAGCAAUAUUACGCUGU	-1.97 ± 0.25	
AUUGAGCAAUAUUACGCUUA	-2.75 ± 0.16	-1.02 ± 0.13
AUUGAGCAAUAUUACGGAAC	-3.09 ± 0.23	
AUUGAGCAAUAUUACGGAAG		-2.63 ± 0.32
AUUGAGCAAUAUUACGGAGG	-2.97 ± 0.22	
AUUGAGCAAUAUUACGGAUU	-2.96 ± 0.23	-1.64 ± 0.23
AUUGAGCAAUAUUACGGCCA	-2.29 ± 0.18	-0.921 ± 0.18
AUUGAGCAAUAUUACGGGGC	-3.06 ± 0.26	-3.09 ± 0.3
AUUGAGCAAUAUUACGGGUG	-4.2 ± 0.28	-2.2 ± 0.3
AUUGAGCAAUAUUACGUACA	-3.85 ± 0.27	-1.87 ± 0.16
AUUGAGCAAUAUUACGUGUU	-3.91 ± 0.22	-2.34 ± 0.14
AUUGAGCAAUAUUACGUUAA	-3.84 ± 0.37	-1.47 ± 0.26
AUUGAGCAAUAUUACGUUAG	-3 ± 0.14	-2.73 ± 0.19
AUUGAGCAAUAUUACGUUUG		-1.91 ± 0.26
AUUUAGCAAUAUUACGAAGG	-3.42 ± 0.38	-2.76 ± 0.41
AUUUAGCAAUAUUACGAAUC	-4.21 ± 0.31	-3.21 ± 0.35
AUUUAGCAAUAUUACGAUAC	-2.44 ± 0.17	-1.01 ± 0.25
AUUUAGCAAUAUUACGAUCC	-0.5 ± 0.4	-0.408 ± 0.23

Sequence	self-splicing fitness (ln) (30 °C)	self-splicing fitness (ln) (37 °C)
AUUUAGCAAUAUUACGCAAA	-1.86 ± 0.15	-1.82 ± 0.17
AUUUAGCAAUAUUACGCGCC	-0.641 ± 0.26	-0.828 ± 0.34
AUUUAGCAAUAUUACGCGGA	-1.73 ± 0.23	-0.805 ± 0.17
AUUUAGCAAUAUUACGCGGC		-2.08 ± 0.5
AUUUAGCAAUAUUACGCGUC	-3.21 ± 0.3	-2.96 ± 0.47
AUUUAGCAAUAUUACGCUGG	-1.97 ± 0.27	-1.4 ± 0.33
AUUUAGCAAUAUUACGGAAG	-1.33 ± 0.29	-1.49 ± 0.39
AUUUAGCAAUAUUACGGAAU	-2.62 ± 0.28	-2.49 ± 0.26
AUUUAGCAAUAUUACGGCCU	0.607 ± 0.15	-0.166 ± 0.16
AUUUAGCAAUAUUACGGGGG	-2.97 ± 0.42	-2.81 ± 0.47
AUUUAGCAAUAUUACGGUCA	-0.961 ± 0.13	-0.48 ± 0.12
AUUUAGCAAUAUUACGGUCG	-1.98 ± 0.15	-1.38 ± 0.22
AUUUAGCAAUAUUACGGUGU	-2.3 ± 0.095	-1.48 ± 0.11
AUUUAGCAAUAUUACGUCGC	-3.64 ± 0.26	-2.2 ± 0.21
AUUUAGCAAUAUUACGUCUU	-0.374 ± 0.12	0.156 ± 0.17
AUUUAGCAAUAUUACGUGAC	-2.58 ± 0.18	-1.49 ± 0.36
CAAAAGCAAUAUUACGACGG	0.122 ± 0.076	-0.14 ± 0.09
CAAAAGCAAUAUUACGACUC	-1.44 ± 0.11	-0.245 ± 0.13
CAAAAGCAAUAUUACGCACC	-2.48 ± 0.31	-0.0893 ± 0.26
CAAAAGCAAUAUUACGCAUA	-3.58 ± 0.17	-1.77 ± 0.12
CAAAAGCAAUAUUACGCCGA	-2.91 ± 0.23	-2.49 ± 0.25
CAAAAGCAAUAUUACGCGCA	-1.05 ± 0.1	-0.548 ± 0.1
CAAAAGCAAUAUUACGCUAC	-3.82 ± 0.26	-2.59 ± 0.25
CAAAAGCAAUAUUACGCUCG	-1.25 ± 0.12	-0.455 ± 0.12
CAAAAGCAAUAUUACGGAAU	-3.21 ± 0.21	-2.56 ± 0.17

Sequence	self-splicing fitness (ln) (30 °C)	self-splicing fitness (ln) (37 °C)
CAAAAGCAAUAUUACGGAUC	-3.73 ± 0.22	-1.98 ± 0.16
CAAAAGCAAUAUUACGGGGG	-3.13 ± 0.18	-2.38 ± 0.15
CAAAAGCAAUAUUACGGGUC	-3.11 ± 0.094	-2.51 ± 0.12
CAAAAGCAAUAUUACGGUUC	-3.56 ± 0.22	-1.83 ± 0.18
CAAAAGCAAUAUUACGUCGC	-4.14 ± 0.28	-2.35 ± 0.25
CAAAAGCAAUAUUACGUCGG	-0.932 ± 0.073	-0.25 ± 0.1
CAAAAGCAAUAUUACGUCUU	-2.5 ± 0.082	-1.24 ± 0.08
CAAAAGCAAUAUUACGUGAC	-5 ± 0.36	-2.47 ± 0.18
CAACAGCAAUAUUACGACAU	-2.026 ± 0.012	-1.04 ± 0.032
CAACAGCAAUAUUACGAGAC	-2.57 ± 0.11	-2.22 ± 0.14
CAACAGCAAUAUUACGAGGC	-3.79 ± 0.36	-1.77 ± 0.18
CAACAGCAAUAUUACGAGUG	-1.59 ± 0.051	-0.292 ± 0.071
CAACAGCAAUAUUACGAGUU	-2.6 ± 0.096	-2.09 ± 0.13
CAACAGCAAUAUUACGAUUA	-0.522 ± 0.082	-0.185 ± 0.082
CAACAGCAAUAUUACGCACU	-2.34 ± 0.14	-0.357 ± 0.12
CAACAGCAAUAUUACGCAUA	-2.7 ± 0.12	-1.4 ± 0.098
CAACAGCAAUAUUACGCAUG	-2.41 ± 0.11	-1.27 ± 0.14
CAACAGCAAUAUUACGCGGG	-2.63 ± 0.14	-2.12 ± 0.14
CAACAGCAAUAUUACGGCGA	-1.5 ± 0.094	-0.709 ± 0.087
CAACAGCAAUAUUACGGGCG	-0.0253 ± 0.049	0.154 ± 0.062
CAACAGCAAUAUUACGGUGG	-2.15 ± 0.083	-0.724 ± 0.082
CAACAGCAAUAUUACGUCGG	-0.576 ± 0.052	-0.369 ± 0.065
CAACAGCAAUAUUACGUUCA	-1.06 ± 0.051	0.193 ± 0.061
CAACAGCAAUAUUACGUUCC	-2.46 ± 0.096	-2.02 ± 0.12
CAACAGCAAUAUUACGUUCG	-0.959 ± 0.051	-0.171 ± 0.065

Sequence	self-splicing fitness (ln) (30 °C)	self-splicing fitness (ln) (37 °C)
CAAGAGCAAUAUUACGACAU	-3.534 ± 0.024	-2.85 ± 0.041
CAAGAGCAAUAUUACGACGU	-2.88 ± 0.23	
CAAGAGCAAUAUUACGAUAC	-2.8 ± 0.34	
CAAGAGCAAUAUUACGAUUU	-3.11 ± 0.2	-2.45 ± 0.16
CAAGAGCAAUAUUACGCAGA	-3.45 ± 0.19	-2.12 ± 0.16
CAAGAGCAAUAUUACGCGCA	-3.48 ± 0.37	-2.09 ± 0.25
CAAGAGCAAUAUUACGGCAC	-4.28 ± 0.24	-2.53 ± 0.18
CAAGAGCAAUAUUACGGCGA	-3.9 ± 0.28	-3.24 ± 0.18
CAAGAGCAAUAUUACGGCUG	-0.309 ± 0.098	-0.473 ± 0.16
CAAGAGCAAUAUUACGGGUG	-1.74 ± 0.078	-1.17 ± 0.1
CAAGAGCAAUAUUACGGUAA	-3.24 ± 0.23	-2.14 ± 0.21
CAAGAGCAAUAUUACGGUAU	-4.27 ± 0.22	-2.63 ± 0.21
CAAGAGCAAUAUUACGGUGC	-3.03 ± 0.31	-2.09 ± 0.35
CAAGAGCAAUAUUACGGUUC	-3.57 ± 0.24	-2.34 ± 0.25
CAAGAGCAAUAUUACGUAAA	-4.16 ± 0.29	-3.01 ± 0.26
CAAGAGCAAUAUUACGUCAC	-3.05 ± 0.21	-2.75 ± 0.23
CAAGAGCAAUAUUACGUCGA	-3.3 ± 0.21	-2.2 ± 0.24
CAAGAGCAAUAUUACGUGAC		-3.01 ± 0.18
CAAGAGCAAUAUUACGUGCA	-2.97 ± 0.21	-3.06 ± 0.43
CAAGAGCAAUAUUACGUUAA	-3.49 ± 0.35	-2.33 ± 0.22
CAAGAGCAAUAUUACGUUGG	-2.67 ± 0.13	-1.78 ± 0.12
CAAUAGCAAUAUUACGAAGU	-3.76 ± 0.15	-2.64 ± 0.15
CAAUAGCAAUAUUACGAGCA	-2.05 ± 0.34	-0.415 ± 0.3
CAAUAGCAAUAUUACGAGCG	-0.254 ± 0.077	0.281 ± 0.098
